Values quoted from earlier work as cited in publication PMC2943937.

Molecular target: CAR (Mus musculus) (UniProt P97792)
Sequence of UniProt P97792 (P97792 20-237): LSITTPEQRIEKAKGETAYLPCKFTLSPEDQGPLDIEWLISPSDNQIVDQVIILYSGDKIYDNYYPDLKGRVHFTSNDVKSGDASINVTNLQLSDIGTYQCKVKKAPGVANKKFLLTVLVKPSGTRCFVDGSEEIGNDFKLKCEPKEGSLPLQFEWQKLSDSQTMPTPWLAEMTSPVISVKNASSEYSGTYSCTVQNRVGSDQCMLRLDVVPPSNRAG

Kd: 5 µM
Substance: JAML (from UniProt Q80UL9)
